Experimental data: article PMC3155546 (PLoS ONE, 2011)

Target: T1, GST-TPPP1–219 (human, UniProt O94811 1-219)
T1 construct: also called GST-TPPP(FL); full-length TPPP
Assay: co-IP
Details: both partners purified

T1 sequence (O94811 whole entry): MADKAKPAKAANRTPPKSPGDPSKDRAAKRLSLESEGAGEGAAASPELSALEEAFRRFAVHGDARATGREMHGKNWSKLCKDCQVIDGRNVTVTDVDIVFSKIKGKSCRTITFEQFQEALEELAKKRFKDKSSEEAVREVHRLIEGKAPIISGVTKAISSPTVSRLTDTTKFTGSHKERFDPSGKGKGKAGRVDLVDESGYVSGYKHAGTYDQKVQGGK

Binder: KTNMKHMAGAAAAGAVVGGLG (domain or fragment) [GST-PrP106–126]
- binding result: binds
